1 substance from US20240018262A1 can be followed below.

Assay [1] addresses GPC3 expressed on hepatoma cell line HepG2 (human) (UniProt P51654). The assay is described as follows: flow cytometry on HepG2 cells, secondary antibody alone (background control); mean fluorescence. (In flow cytometry, cells or beads pass a laser one at a time.)
The target is the same in assay [2]. The assay is described as follows: flow cytometry on HepG2 cells, secondary antibody alone (background control); median fluorescence.

Sequence of GPC3 expressed on hepatoma cell line HepG2 (human) (P51654 25-554 limits assumed): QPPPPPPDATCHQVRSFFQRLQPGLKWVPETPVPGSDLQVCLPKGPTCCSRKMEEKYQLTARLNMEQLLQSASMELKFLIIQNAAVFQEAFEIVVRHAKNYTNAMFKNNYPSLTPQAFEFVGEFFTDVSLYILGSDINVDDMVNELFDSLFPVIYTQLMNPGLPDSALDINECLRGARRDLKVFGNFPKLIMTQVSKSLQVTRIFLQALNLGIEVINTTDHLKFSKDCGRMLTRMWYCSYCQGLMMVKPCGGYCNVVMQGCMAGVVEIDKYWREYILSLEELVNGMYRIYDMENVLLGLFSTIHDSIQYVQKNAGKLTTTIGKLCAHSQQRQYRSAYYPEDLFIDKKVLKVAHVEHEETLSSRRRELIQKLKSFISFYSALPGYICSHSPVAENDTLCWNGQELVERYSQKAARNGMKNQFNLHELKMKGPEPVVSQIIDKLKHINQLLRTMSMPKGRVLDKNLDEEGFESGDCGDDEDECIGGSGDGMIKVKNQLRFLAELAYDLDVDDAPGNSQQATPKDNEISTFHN

For “PE-conjugated goat anti-mouse IgG (Biolegend Inc., cat #405307) (antibody)”, the Mean in assay [1] came out at 243. This substance gave a Median in assay [2] of 205.
